Data on 2 molecules can be found in doi:10.1101/2025.09.13.676064, “Structural Hijacking of FcRn by Human Astrovirus Spikes Reveals Conserved Epitopes for Broad-Spectrum Antivirals” (bioRxiv, 2025).

Assay [1] has as its target T1, untagged recombinant human FcRn extracellular domain (neonatal Fc receptor; α-chain with β2-microglobulin) (human, UniProt P55899 24-297; P61769 21-119).
T1 construct: Human FcRn α-chain (heavy chain), residues 24-297 of UniProt P55899; Human β2-microglobulin, residues 21-119 of UniProt P61769; Untagged; both chains cloned into separate phCMV3 vectors; also called human FcRn ectodomain; FcRn heterodimer; source: Expi293F cells, co-transfected (1:1), purified from the supernatant (human IgG column, SEC Superdex 200 Increase)
The assay can be described thus: BLI; biotinylated spike immobilised on streptavidin (SA) biosensors; FcRn in solution, 2-fold dilutions 1,000 to 31.25 nM; 23°C; pH 7.5; 1:1 binding model; Octet Red. To be noted: both partners purified. On the technique in general: Biolayer interferometry detects binding as a change in optical thickness at a sensor tip.

The target in assay [2] is T1, untagged recombinant human FcRn …. The assay can be described thus: BLI; biotinylated spike immobilised on streptavidin (SA) biosensors; FcRn in solution, 2-fold dilutions 1,000 to 31.25 nM; 23°C; pH 6.0; 1:1 binding model; Octet Red. To be noted: both partners purified.

T1 sequence (P55899 24-297, chain 1 of 2): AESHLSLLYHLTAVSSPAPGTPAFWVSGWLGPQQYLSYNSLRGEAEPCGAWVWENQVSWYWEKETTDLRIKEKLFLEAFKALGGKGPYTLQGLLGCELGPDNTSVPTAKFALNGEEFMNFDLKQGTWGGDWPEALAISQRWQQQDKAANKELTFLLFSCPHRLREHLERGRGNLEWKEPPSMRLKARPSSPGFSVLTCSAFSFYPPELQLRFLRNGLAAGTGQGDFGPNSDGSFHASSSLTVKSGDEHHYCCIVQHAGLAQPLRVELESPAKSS
T1 sequence (P61769 21-119, chain 2 of 2): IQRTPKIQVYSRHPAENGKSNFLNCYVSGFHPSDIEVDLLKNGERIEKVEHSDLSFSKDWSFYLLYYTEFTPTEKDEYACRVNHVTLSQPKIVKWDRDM

B1: HAstV-2 capsid spike domain (residues 428-647) (domain or fragment)
chain: SGELRVLLTVGSIMSPNSADRQVWLNKTLTAPGTNSNDNLVKIAHDLGHYLIMQGFMHIKTVEWYTPDFQPSRDPTPIAGMSVMVNITKKADVYFMKQFKNSYTNNRHQITSIFLIKPLADFKVQCYMSYFKRESHDNDGVANLTVRSMTSPETIRFQVGEWYLLTSTTLKENNLPEGWVWDRVELKSDTPYYADQALTYFITPPPVDSQILFEGNTTLP
modifications: biotin (biotinylated spike; BirA co-transfected)
notes: Human astrovirus serotype 2 capsid protein (ORF2-encoded precursor), spike domain, residues 428-647 of Q82446.1; Codon-optimised, in pcDNA3.1; also called HAstV2 spike; serotype 2 spike; source: Expi293F cells, co-transfected with BirA plasmid, purified from the supernatant (Ni-IMAC, SEC Superdex 200); not shown: AviTag, C-terminal, kept
B1: the Kd in assay [1] came out at 898 nM; in assay [2], 42 nM.

B2: HAstV-8 capsid spike domain (residues 424-645) (domain or fragment)
chain: SIPEPGEQFRVLLTVGPPMAPNTANSQNWVNKTIVPPENQYTVKIGIDLEHYTTMQGFTPVESVSWYTADFQPSDEPSPIPGLYARVNNTKKADVYGVQQFKSSHTNNRHQITSVFLVRVTTSFQVINYTSYFIRGAESGSNVSNLKIRDQTYHTPLQFTQGKWYLLTSTVMHDGPTSSGWVWMNQELTNNIAYRVDPGMMYLITPPPAASQLYFELHTVLP
modifications: biotin (biotinylated spike; BirA co-transfected)
notes: Human astrovirus serotype 8 capsid protein (ORF2-encoded precursor), spike domain, residues 424-645 of Q9IFX1; Codon-optimised, in pcDNA3.1; also called HAstV8 spike; serotype 8 spike; source: Expi293F cells, co-transfected with BirA plasmid, purified from the supernatant (Ni-IMAC, SEC Superdex 200); not shown: AviTag, C-terminal, kept
As for B2, the values for the Kd in assay [1] and in assay [2] were 458 nM and 60 nM, respectively.

Broadly, the Kd is the equilibrium constant for the complex coming apart.
